Laboratory results published in patent publication US20030152975A1.

Biological target: INF1 expressed in planta (FMV 35S promoter, PR1a signal peptide - INF1) (Phytophthora infestans (US-8 genotype))
Assay: cell-based or functional assay

Nhr1 expressed from the cosmid Nhr1 clone (tobacco genomic DNA in binary cosmid 04541)
necrosis percentage (average of 31 leaves), 78 hai: 11% | necrosis percentage (average of 31 leaves), 94 hai: 19.8% | necrosis percentage (average of 31 leaves), 102 hai: 26% | necrosis percentage (average of 31 leaves), 120 hai: 28.9% | necrosis percentage (average of 31 leaves), 140 hai: 31%
